Measured values published in the supplement of paper PMC7125110.
± gives the standard error. This sample holds only a part of the variants without activity.

B1: glmS ribozyme (parent)
chain: AUAAAAGCGCCAGAACUACAGAAAUGUAGUUGACGAGGAGGAGGUUUAUCGAAUUUUCGGCGGAUGCCUCCAAA

What was measured:
Conditions in all cases: with glucosamine-6-phosphate
glucosamine-6-phosphate [1] = variants of: B1; experiment: self-cleavage kobs at 40 uM GlcN6P; higher = faster cleavage; RNA array
Outline: (§1)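 Sequenced MiSeq chips were the platform: E. coli RNA polymerase transcribed barcoded ribozyme variants on them in situ, and a hybridised Cy3 probe tracked these at 37 °C. After glucosamine-6-phosphate (40 μM to 10 mM) in HEPES/KCl/Mg(OAc)2 buffer was flowed in, tiles were imaged over ~14 h. Signals normalised to baseline and to non-cleaving reference variants were reduced to per-tile medians and fit to one- or two-exponential decays to obtain kobs. kcat and KM were derived through weighted Michaelis–Menten fits across concentrations.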

glucosamine-6-phosphate [2] = variants of: B1; experiment: self-cleavage kobs at 640 uM GlcN6P; higher = faster cleavage; RNA array
Outline: as §1

glucosamine-6-phosphate [3] = variants of: B1; experiment: self-cleavage kobs at 2500 uM GlcN6P; higher = faster cleavage; RNA array
Outline: as §1

glucosamine-6-phosphate [4] = variants of: B1; experiment: self-cleavage kobs at 10000 uM GlcN6P; higher = faster cleavage; RNA array
Outline: as §1

glucosamine-6-phosphate [5] = variants of: B1; experiment: self-cleavage kobs at 160 uM GlcN6P; higher = faster cleavage; RNA array
Outline: as §1

Variant | self-cleavage kobs at 40 uM GlcN6P (glucosamine-6-phosphate [1]) [s⁻¹] | self-cleavage kobs at 640 uM GlcN6P (glucosamine-6-phosphate [2]) [s⁻¹] | self-cleavage kobs at 2500 uM GlcN6P (glucosamine-6-phosphate [3]) [s⁻¹] | self-cleavage kobs at 10000 uM GlcN6P (glucosamine-6-phosphate [4]) [s⁻¹] | self-cleavage kobs at 160 uM GlcN6P (glucosamine-6-phosphate [5]) [s⁻¹]
G63A A64U | < 1e-05 | < 1e-05 | < 1e-05 | < 1e-05 | –
A6G G13U G29C C50G | – | 0.00012 ± 4.1e-05 | 0.000163 ± 4.4e-05 | – | 0.000248 ± 5.8e-05
G63C A64C | < 1e-05 | – | – | < 1e-05 | < 1e-05
G59C G66U | < 1e-05 | < 1e-05 | – | < 1e-05 | < 1e-05
A6C G40A A52G C67U | – | < 1e-05 | < 1e-05 | – | < 1e-05
G63C G66C | < 1e-05 | < 1e-05 | < 1e-05 | < 1e-05 | < 1e-05
U54A G60C | < 1e-05 | < 1e-05 | – | < 1e-05 | –
A53U U65A | 4.97e-05 ± 1.8e-05 | – | 0.00238 ± 0.00058 | 0.00253 ± 0.00061 | 7.52e-05 ± 2.1e-05
C61U G62C | < 1e-05 | < 1e-05 | < 1e-05 | < 1e-05 | –
G7A A33U G44U | – | – | < 1e-05 | – | < 1e-05
A6U U31G G41U A64C | – | < 1e-05 | < 1e-05 | – | < 1e-05
A6U A42C | – | – | < 1e-05 | < 1e-05 | < 1e-05
G59A A64U C67G | < 1e-05 | – | – | – | –
U56C G63U | < 1e-05 | – | – | < 1e-05 | < 1e-05
G60A C61G | < 1e-05 | – | < 1e-05 | < 1e-05 | –
U56C C61U C71U | < 1e-05 | – | – | – | –
U54A G66A C67G | 5.57e-05 ± 1.5e-05 | – | 0.000119 ± 4.7e-05 | 0.000693 ± 0.00017 | –
U54A G63A | < 1e-05 | < 1e-05 | – | – | < 1e-05
U54A G63C | < 1e-05 | – | – | < 1e-05 | –
C68A C70A | < 1e-05 | – | – | – | –
A6G G29C C70G | – | – | < 1e-05 | < 1e-05 | < 1e-05
G63A U65C | < 1e-05 | < 1e-05 | – | < 1e-05 | –
U56G G62A | < 1e-05 | – | < 1e-05 | < 1e-05 | –

Variant | self-cleavage kobs at 40 uM GlcN6P (glucosamine-6-phosphate [1]) [s⁻¹] | self-cleavage kobs at 640 uM GlcN6P (glucosamine-6-phosphate [2]) [s⁻¹] | self-cleavage kobs at 2500 uM GlcN6P (glucosamine-6-phosphate [3]) [s⁻¹] | self-cleavage kobs at 10000 uM GlcN6P (glucosamine-6-phosphate [4]) [s⁻¹] | self-cleavage kobs at 160 uM GlcN6P (glucosamine-6-phosphate [5]) [s⁻¹]
U65C C68U C71U | < 1e-05 | – | – | – | –
G60A C61A C67G C68G | 4.45e-05 ± 2.2e-05 | – | – | – | –
A6U C10A U30G A36G A42C U49C U65A | – | < 1e-05 | < 1e-05 | – | < 1e-05
U56C G60U C68U | < 1e-05 | – | – | – | –
U54C U55G | 0.00056 ± 0.00017 | 0.00482 ± 0.0012 | 0.00712 ± 0.0021 | 0.0366 ± 0.018 | 0.000955 ± 0.00031
G63A U65G G66U | < 1e-05 | – | < 1e-05 | < 1e-05 | –
U57C C61U | < 1e-05 | < 1e-05 | < 1e-05 | < 1e-05 | < 1e-05
U56A C71U | 0.000282 ± 3.8e-05 | 0.00243 ± 0.00036 | 0.0201 ± 0.0072 | 0.018 ± 0.0044 | 0.000738 ± 0.00012
C61G A64U C68A | < 1e-05 | – | – | – | –
U54A C61A G66U | < 1e-05 | – | – | – | –
G63A G66U | < 1e-05 | < 1e-05 | < 1e-05 | < 1e-05 | –
U54G U55A | 0.00109 ± 0.00018 | – | – | 0.0495 ± 0.015 | –
A6G G35C G59A | – | < 1e-05 | – | – | < 1e-05
G59U G60U | < 1e-05 | < 1e-05 | < 1e-05 | – | < 1e-05
G59U G60C | < 1e-05 | < 1e-05 | – | < 1e-05 | –
U54C C67U | 0.000255 ± 4.3e-05 | 0.000928 ± 0.00027 | 0.00157 ± 0.00051 | 0.0047 ± 0.0014 | 0.000586 ± 0.00012
G62U U65G | < 1e-05 | < 1e-05 | < 1e-05 | < 1e-05 | < 1e-05
A6U U31A G43U | – | < 1e-05 | < 1e-05 | – | < 1e-05
G60U U69C | < 1e-05 | < 1e-05 | – | < 1e-05 | < 1e-05
U56C G59C | < 1e-05 | – | – | < 1e-05 | –
U56C C58U G60U | < 1e-05 | – | < 1e-05 | – | < 1e-05
A6C G37C U65A | – | < 1e-05 | < 1e-05 | – | < 1e-05
